Data from the supplement of paper PMC7125110.
± gives the standard error. For some of these results: Fewer inactive variants are shown than the library holds.

B1: glmS ribozyme (parent)
chain: AUAAAAGCGCCAGAACUACAGAAAUGUAGUUGACGAGGAGGAGGUUUAUCGAAUUUUCGGCGGAUGCCUCCAAA

How the values were obtained:
Settings in all cases: with glucosamine-6-phosphate
[1] = variants of: B1; assay: kcat; higher = faster cleavage; RNA array
Outline: (§1)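 Barcoded ribozyme variants, transcribed in situ by E. coli RNA polymerase on sequenced MiSeq chips, were followed via a hybridised Cy3 probe at 37 °C. Glucosamine-6-phosphate ranged from 40 μM to 10 mM in HEPES/KCl/Mg(OAc)2 buffer. kobs came from decay fits to per-tile medians, and kcat and KM from weighted Michaelis–Menten fits.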

[2] = variants of: B1; assay: self-cleavage kobs at 10000 uM GlcN6P; higher = faster cleavage; RNA array
Outline: as §1

[3] = variants of: B1; assay: KM; higher = weaker cofactor use; RNA array
Outline: as §1

[4] = variants of: B1; assay: self-cleavage kobs at 2500 uM GlcN6P; higher = faster cleavage; RNA array
Outline: as §1

[5] = variants of: B1; assay: self-cleavage kobs at 640 uM GlcN6P; higher = faster cleavage; RNA array
Outline: as §1

[6] = variants of: B1; assay: self-cleavage kobs at 160 uM GlcN6P; higher = faster cleavage; RNA array
Outline: as §1

[7] = variants of: B1; assay: self-cleavage kobs at 40 uM GlcN6P; higher = faster cleavage; RNA array
Outline: as §1

Row | Variant | kcat [1] | self-cleavage kobs at 10000 uM GlcN6P [2] | KM [3] | self-cleavage kobs at 2500 uM GlcN6P [4] | self-cleavage kobs at 640 uM GlcN6P [5] | self-cleavage kobs at 160 uM GlcN6P [6] | self-cleavage kobs at 40 uM GlcN6P [7]
1 | AUAAAAGCGCCGGAACUACAGAAAUGUAGUUGACGAGGAGGAGGUUUAGCGAAUUUUCGGCGGAUGCCUCCAAA | 0.00103 ± 0.00035 s⁻¹ | 6.93e-05 ± 1.7e-05 s⁻¹ | – | – | – | – | –
2 | AUAAAAGCGCCGAAACUACAGAAAUGUAGUUGACGAGGAGGAGGUUUAUCGAAUUUUCGGCGGAUGCCUCCAAA | 6.3e-05 ± 2.4e-06 s⁻¹ | 4.66e-05 ± 7.4e-06 s⁻¹ | 3.47 ± 0.39 mM | 2.7e-05 ± 9.7e-06 s⁻¹ | – | – | –
3 | AUAAAAGCGCCGGAACUACAGAAAUGUAGAUGACGAGGAGGAGGUUUAUCGAAUUUUCGGCGGAUGCCUCCAAA | 0.00011 ± 1.9e-06 s⁻¹ | 8.52e-05 ± 7.5e-06 s⁻¹ | 2.89 ± 0.16 mM | 5.17e-05 ± 9.7e-06 s⁻¹ | – | – | –
4 | AUAAAAGCGCCGGAACUACAGAAAUGUAGUGGACGAGGAGGAGGUUUAUCGAAUUUUCGGCGGAUGCCUCCAAA | 0.000573 ± 0.00012 s⁻¹ | 0.000374 ± 3.9e-05 s⁻¹ | 4.66 ± 1.5 mM | 0.000254 ± 3.4e-05 s⁻¹ | 6.61e-05 ± 8.2e-06 s⁻¹ | – | –
5 | AUAAAAGCGCCUGAUCUACAGAAAUGUAGUUGACGAGGCGGAGGUUUAUCGAAUUUUCGGCGGAUGCCUCCAAA | 0.000282 ± 8.6e-05 s⁻¹ | 0.000374 ± 8.8e-05 s⁻¹ | – | 0.000199 ± 3.2e-05 s⁻¹ | 9.89e-05 ± 1.6e-05 s⁻¹ | 6.33e-05 ± 1.3e-05 s⁻¹ | –
6 | AUAAAAGCGCCGGAACUACAGAAAUGUAGUUGACGAGGAGGAGGUUUAUCGAAUUUUCGGCGGAUGCCGCCAAA | 7.83e-05 ± 2.6e-06 s⁻¹ | 7.47e-05 ± 1.1e-05 s⁻¹ | 0.285 ± 0.071 mM | 7.46e-05 ± 1.5e-05 s⁻¹ | 5.05e-05 ± 1.9e-05 s⁻¹ | – | –
7 | AUAAAAGCGCCGGAACUACAGAAAUGUAGUUGACGAGGAGGAGGUGUAUCGAAUUUUCGGCGGAUGCCUCCAAA | 0.000475 ± 2.8e-05 s⁻¹ | 0.000248 ± 2.3e-05 s⁻¹ | 9.04 ± 0.89 mM | 0.000105 ± 1.5e-05 s⁻¹ | 2.82e-05 ± 1.2e-05 s⁻¹ | – | –
8 | AUAAAAGCGCCGGAACUACAGAAAUGUAGUUGACGAAGAGGAGGUUUAUCGAAUUUUCGGCGGAUGCCUCCAAA | 0.000113 ± 2.5e-05 s⁻¹ | 6.97e-05 ± 1.1e-05 s⁻¹ | 6.32 ± 2.8 mM | 3.05e-05 ± 8.5e-06 s⁻¹ | – | – | –
9 | AUAAAAGCGCCUGAACUACAGAAAUGUAGUUGACGAGGCGGAGGUUUAUCGAAUUUUCGGCGGAUGCCUCCAAA | 0.00341 ± 0.00095 s⁻¹ | 0.00266 ± 0.00035 s⁻¹ | 2.77 ± 1.1 mM | 0.00163 ± 0.00023 s⁻¹ | 0.000656 ± 8.7e-05 s⁻¹ | 0.000149 ± 2.7e-05 s⁻¹ | 9.51e-05 ± 1.7e-05 s⁻¹
10 | AUAAAAGCGCCGGAACUACAGAAAUGUAAUUGACGAGGAGGAGGUUUAUCGAAUUUUCGGCGGAUGCCUCCAAA | 0.000356 ± 6.4e-05 s⁻¹ | 0.000213 ± 4.3e-05 s⁻¹ | 7.17 ± 1.9 mM | 8.7e-05 ± 1.7e-05 s⁻¹ | 3.29e-05 ± 1e-05 s⁻¹ | – | –
11 | AUAAAAGCGCCGGAACUACAGAAAUGUAUUUGACGAGGAGGAGGUUUAUCGAAUUUUCGGCGGAUGCCUCCAAA | 0.000345 ± 2.6e-05 s⁻¹ | 0.000255 ± 4.1e-05 s⁻¹ | 3.74 ± 0.44 mM | 0.000134 ± 1.9e-05 s⁻¹ | 5.19e-05 ± 7.9e-06 s⁻¹ | – | –
12 | AUAAAAGCGCCGGAACUACAGAAAUGUAGUUGACGAGGAGGAGGUUUAUCGAAUUUUCCGCGGAUGCCUCCAAA | 6.79e-05 ± 1.4e-05 s⁻¹ | 5.86e-05 ± 1.4e-05 s⁻¹ | – | 7.69e-05 ± 2.4e-05 s⁻¹ | – | – | < 1e-05 s⁻¹
13 | AUAAAAGCGCCGGAACUACAGAAAUGUAGUUGACGAGGAGGAGGUUUAUCGAAUUUUCUGCGGAUGCCUCCAAA | 1e-05 ± 1.9e-06 s⁻¹ | – | – | – | – | – | –
14 | AUAAAAGCGCCGGAACUACAGAAAUGUAGUUGACGAGGACGAGGUUUAUCGAAUUUUCGGCGGAUGCCUCCAAA | 0.000334 ± 3.5e-05 s⁻¹ | 0.000248 ± 3.1e-05 s⁻¹ | 3.83 ± 0.72 mM | 0.000124 ± 1.6e-05 s⁻¹ | 5.37e-05 ± 1e-05 s⁻¹ | – | –
15 | AUAAAAGCGCCGGAACUACAGAAAUGUAGUUGACGAGGAGGAGGUUUAUCGAAUUUUCGGCGGAUGCCUCGAAA | 0.000425 ± 2.2e-05 s⁻¹ | 0.000298 ± 3.1e-05 s⁻¹ | 4.4 ± 0.37 mM | 0.00015 ± 1.6e-05 s⁻¹ | 5.45e-05 ± 6.3e-06 s⁻¹ | – | –
16 | AUAAAAGCGCCGGAACUACAGAAAUGUAGUUGACGAGGAGCAGGUUUAUCGAAUUUUCGGCGGAUGCCUCCAAA | 0.000171 ± 2.4e-05 s⁻¹ | 8.02e-05 ± 1.1e-05 s⁻¹ | – | 3.14e-05 ± 1.1e-05 s⁻¹ | – | – | < 1e-05 s⁻¹
17 | AUAAAAGCGCCGGAACUACAGAAAUGUAGUUGACGAGGAGAAGGUUUAUCGAAUUUUCGGCGGAUGCCUCCAAA | 0.00048 ± 0.00011 s⁻¹ | 0.000246 ± 3.7e-05 s⁻¹ | 9.92 ± 3.5 mM | 8.85e-05 ± 1.7e-05 s⁻¹ | 3.72e-05 ± 1.2e-05 s⁻¹ | – | –
18 | AUAAAAGCGCCGGAACUACAGAAAUGUAGUUGACGAGGAGGAGGUUUAUCGAAUUUUCGGCGGAGGACUCCAAA | 0.000136 ± 1.4e-05 s⁻¹ | 0.000108 ± 3.2e-05 s⁻¹ | 3.01 ± 0.61 mM | 6.02e-05 ± 1.2e-05 s⁻¹ | – | – | –
